# From patent US20230151085A1 (TRINOMAB BIOTECH, published 2023)
# T1: human brain-derived neurotrophic factor (hBDNF) (human, UniProt P23560 129-247)
# T1 construct: Bought protein (Absin)
# T1 sequence (looked up): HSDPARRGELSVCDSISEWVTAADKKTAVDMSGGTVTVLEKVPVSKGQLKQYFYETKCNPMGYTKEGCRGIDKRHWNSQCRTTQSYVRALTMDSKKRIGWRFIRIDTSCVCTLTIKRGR
# T2: human neurotrophin-3 (hNT-3) (human, UniProt P20783 139-257)
# T2 construct: Bought protein (Absin)
# T2 sequence (looked up): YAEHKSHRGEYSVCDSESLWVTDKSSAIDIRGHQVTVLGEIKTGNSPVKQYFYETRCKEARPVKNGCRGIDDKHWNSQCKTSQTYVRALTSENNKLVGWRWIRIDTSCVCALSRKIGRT
# T3: human neurotrophin-4 (hNT-4) (human, UniProt P34130 81-210)
# T3 construct: Bought protein (Absin)
# T3 sequence (looked up): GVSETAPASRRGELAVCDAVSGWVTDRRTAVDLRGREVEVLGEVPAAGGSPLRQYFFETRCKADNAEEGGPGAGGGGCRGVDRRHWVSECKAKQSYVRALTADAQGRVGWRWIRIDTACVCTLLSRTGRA
# B1: human anti-NGF antibody TRN1027 (antibody, V domains shown)
# VH: QLQLQESGSGLVRPSQTLSLTCAVSGDSMNSGGYSWSWIRQPPGKGLEWIGYIYYSGSTHYNPSLESRVTLSLHRSKNQFFLQLSSVTAADTAVYYCARTLWFGEFEGFDPWGQGILVTVSS
# VL: QSALTQPPSASGSPGQSVTISCTGTSSDVGGYNFVSWYQHHPGKAPKLLLYEVSKRPSGVPDRFSGSKSGNTASLTVSGLQAEDEADYFCSSFAGSNNFVFFGGGTKLTVL
# B2: anti-NGF antibody Tanezumab (CAS No. 880266-57-9, published in CN 102746399 B, also known as E3) (antibody, V domains shown)
# VH: QVQLQESGPGLVKPSETLSLTCTVSGFSLIGYDLNWIRQPPGKGLEWIGIIWGDGTTDYNSAVKSRVTISKDTSKNQFSLKLSSVTAADTAVYYCARGGYWYATSYYFDYWGQGTLVTVSS
# VL: DIQMTQSPSSLSASVGDRVTITCRASQSISNNLNWYQQKPGKAPKLLIYYTSRFHSGVPSRFSGSGSGTDFTFTISSLQPEDIATYYCQQEHTLPYTFGQGTKLEIKR
# Legend:
# [1] = target: T4, human nerve growth factor (hNGF) (human, UniProt P01138 122-241); experiment: cell-based or functional assay
# T4 sequence (P01138 122-241 limits assumed): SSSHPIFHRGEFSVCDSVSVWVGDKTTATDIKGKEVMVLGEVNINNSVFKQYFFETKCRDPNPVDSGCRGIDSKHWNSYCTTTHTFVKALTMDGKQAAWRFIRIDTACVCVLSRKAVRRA
# [2] = target: T1, human brain-derived neurotrophic factor …; experiment: ELISA, neurotrophin coated on plate, goat anti-human IgG-HRP detection
# Experimental: (§1) The present invention determines the cross-reactivity of antibody TRN1027 to other neurotrophins by ELISA. HBDNF, hNT-3 and hNT-4 (Absin) were used as antigens to coat the 96-well plate at […] overnight at 4° C., respectively. Then the plate was blocked with the blocking solution for 2 hours at ambient temperature. The plate was added with antibody TRN1027 with decreasing concentrations (ranging from 10 ug/ml-0 ug/ml) at 100 ul/well and incubated at 37° C. for 1 h. Antibody TRN1027 was detected by TMB with goat-anti-human IgG-HRP (1: 10000) and the substrate developer. OD values were measured at dual wavelengths of 450-630 nm.
# [3] = target: T2, human neurotrophin-3 (hNT-3); experiment: as above
# Experimental: as §1
# [4] = target: T3, human neurotrophin-4 (hNT-4); experiment: as above
# Experimental: as §1
# [5] = target: T4, human nerve growth factor (hNGF); experiment: ELISA, hNGF coated at 2 ug/mL, antibody titrated from 10 ug/mL, goat anti-human IgG-HRP
# Experimental: Antibody TRN1027 was tested for binding activity to hNGF by the ELISA assay. Specifically, 2 μg/mL of hNGF as an antigen was diluted and coated with carbonate buffer at pH 9.6 in a 96-well plate overnight at 4° C.; the plate was blocked by the blocking solution at 37° C. for 2 h. The antibody TRN1027 was serial diluted with the blocking solution, starting at 10 μg/mL, 3-fold dilution for 12 gradients; each gradient of antibody TRN1027 was then added to a 96-well plate and incubated for 1 h at 37° C. The plate was washed with the PBST buffer, added with 100 μ/well LHRP labeled goat anti-human IgG (1: 10000), and incubate at 37° C. for 1 h. The plate was washed with the PBST buffer, added with 100 μL/well TMB developing solution away from light, and placed for 5 min at 37° C. H₂SO₄ was added to stop the reaction. The detection was conducted at 450 nm wavelength. The results were calculated and analyzed.
# [6] = target: T4, human nerve growth factor (hNGF); experiment: SPR (BIACORE3000), antibody captured by anti-human IgG (Fc) on CM5 chip, hNGF as analyte
# Description: The binding force between an antibody and an antigenic determinant, called antibody affinity, reflects the ability of the antibody molecule to bind to the antigenic determinant. In this example, the antigen binding affinity of antibody TRN1027 was detected using surface plasmon resonance analysis (BIACORE3000). Anti-human IgG (Fc) antibody was immobilized on the surface of CM5 sensor chip (GE) by amino-coupling method. The anti-NGF antibody was captured as a ligand, the capture level reached about 400 RU. Different concentrations of hNGF protein were passed through the detection channel as the analyte streams. The binding of antigen to antibody and dissociation of the bound complex was monitored in real-time. Kinetic analysis (calculation of dissociation constants (KD)) was performed with the Biacore X100 Evaluation Software (2.0.1).
binder,measurement,setting,value
B1,EC50 of inhibition of NGF-induced proliferation of TF-1 cells (MTS),[1],3.01 ng/mL
same,EC50 of neutralisation of NGF on PC-12 cells (Celltiter-Glo cell viability),[1],8.83 ng/mL
same,binding result,[2],no binding (tested: 10 ug/ml-0 ug/ml)
same,binding result,[3],no binding (tested: 10 ug/ml-0 ug/ml)
same,binding result,[4],no binding (tested: 10 ug/ml-0 ug/ml)
same,EC50,[5],1.07 ng/mL
same,Kd,[6],0.0168 nM
B2,EC50 of inhibition of NGF-induced proliferation of TF-1 cells (MTS),[1],14.3 ng/mL
same,EC50 of neutralisation of NGF on PC-12 cells (Celltiter-Glo cell viability),[1],32.2 ng/mL
same,EC50,[5],2.96 ng/mL
